Data taken from the DeepSol protein solubility set.

experiment: soluble on expression in E. coli; label from the status in PepcDB or PDB records

Row | Sequence | soluble on expression in E. coli
1 | MGSDKIHHHHHHCSTDFLDRNPLDKPSNEAFWRTEKDAMAAATGCYNGWFSMDEVIYADCASDNAYNPFTWEGWAVQAAGTATPTDPGYSYMGYGNMVRYNNFLENIHRPEMNEDLRKRLIAEVRFLRAWDYFQKVAHYGDVPLVTSVLEIKNANLPRTEKAKVVEFILKELKEIAPQLPESYSGSDVGRITRGAALTLKARLELFEHQYDDCMATCSEVMGLGYELFLDYKGLFKIANENNSEVILDVQYVESLYGNWVLGVLPPASVGGWCSINPTQSLVDAFECEDGKTIEESEVYDPKEPYLHRDPRLAVTVLAPGNLYEGKRYDPIDVKDPNGDYYAPYGRSKTGYLVRKYVDDLSDYADMWDCGMNAIVMRYAEVLLMYAECKIELNQIDNSVYDILDDIRTRAKMPVVDRTRYTGQEKLRELLRRERRVELAMEGLRWFDICRWKIGEQVLNGKVYGCLLGTVDPVTGALSLTNERIFVENRKFDPAKHYLWPIPQTVIDATPAIVQNPHY | not soluble
2 | MGSDKIHHHHHHMANFAYEVFSTVVAQHTFYQAAATLNVTPSAVSHSINQLEKELGFPLFIRNRSGVELTSDGRQVLPYVQEILNTESNLRQVADNIQGLHSGSVRIGGFSSVCINWLPRIIREFNHKYPDIKISVMQGNFNEITNWAKIGTIDIGFTSMPVNENLLVHSLINDPIYCVTPADFIPENGEFITTDDVADKNFILQQSDYDRDTKLALDHYHVTNNFLRFSIDDQSIISMVESGLGMGILPQLALRKLTGDVNTFSFAEPYNREIALVANKTQAAAPSTAIMIRAIKQFLTKEYPDQMLWQ | not soluble
3 | MATKFNRILVGVDDSADALLAFDYAIHQAKQDGAELVIISILENDEMNVYQALSKDYIHGERQELEQHILKYQKQAQAAGVTKVHAMIAEGEPGETIVKEVIPHVQPDLLIIGSLAKKGIAKHFGSQAAYMAKYAPISVLVIR | not soluble
4 | GAMAPGGEMTFSIPTHKCGLVIGRGGENVKAINQQTGAFVEISRQLPPNGDPNFKLFIIRGSPQQIDHAKQLIEEKIEGPLCPVGPGPGGPGPAGPMGPFNPGPFNQ | soluble
5 | MSLKSAKDVQTITKITIDFGGEEIFLDFDEVTKHYLNQPLSAKTVFALTKELTQVLYNAGYVTSAIGLKSSKIKNGEVEFVVLWGKVNDILVEEQQASLFKDKAMLFVLPNLKGKVLRIYDVDQLIEILNTGNKTAKVNVIAANEKSMSNLSIERHRTSYPQVSLSLNNSGEGSNAEGRNQATLSISWSDLLGTNDRWSFSTGYRIYKDRQANRQQNYSLSYTQPFSFSTLDIKLSYSGYKKQLRGIHTHGSSGETKQASFKLSHTLLRNKDMILSLYGELEFKRRLSYFGDIRIGKYHNNKLNIGLSYVTNLGHGKLYSDLSYSNGLRWFNANHSAYNSHRDKTLRLVSGSINWQRPFVFFNRGMSYQFRLGAQYGFDSLYGENQFSIGDEYTVRGFKGGAGSGDRGFYISQTVTIPFYPQKSYLSYINPFLGIDIGKVHAKRPHHVVDTFAGFAFGVKAQIKSLALSLTYAKPINGVGTFEESNKKSVFYFTGSVSFEGHHHHHH | not soluble
6 | MSLKINIKDDAQAYLADKIPAGSQVILTTDDGSNKYSSLGGSCAIGNKFQLVILKAADPDYTTPLENNAGYVMHVAPADEAYLGNGLNISRWHNALALKDDSGMLDGALAVVDWRDVSPETEAERREKMQTIGTKICEGHHHHHH | soluble
7 | GGDKQEAPITKNSIAGGQSESANSTMPGIVVPIISAETSHAAGNADPDVPDTAPLAIDTALESAWQPAKGDTLVLNFAQPYVISRVIVDSPTKDMTLEVRAGDTVVGTGTVTKSRTKITVTPAPAVTSLSIRVVGVPDGVSPEINDVKLVAKI | not soluble
8 | MSLTNQAYPMALVSQDSLDSYIRSVNGYPMLSADEERELAERLHYKGDIDAAKGLILSHLRFVVHVARGYSGYGLPMADLVQEGNIGLMKAVKRFNPEMGVRLVSFAVHWIKAEIHEYVLRNWRIVKIATTKAQRKLFFNLRKSKKRLGWFNNGEVETVARELGVEPAEVREMESRLAAQDAAFEMSAEDDENGMAYTAPVLYLEDKHSDLADNLEAENWEAHTTQRLSMALASLDERSQHIVRARWLDDDNKTTLQDLAEMYGVSAERIRQLEKNAMRKLKEAVGEEGHHHHHH | soluble
9 | MGSDKIHHHHHHMKEQKLSNRFCPEGMTVEEWQVGLRREFAEQNPFDVEHLDENRIWGDYLVANGRNRYRVAFRGVRSERNYCSCLDFRTNGLGTCKHIEAVTLFLQDQVPGYPWGEFDYTPEYSSIYVSYKGGRSIKMRVGREETARFEALRARFFDESGTLPPENYSFLPQICDEAKDIAASFRCYEDVFDLTQEHCRRMEWQDYLRETNPDKRVDNEYTADMPEEMRRHVYDLAYEGHGVMVGLPSDVIVREVVALADVYLRDQPGATGYVIINDPQRFILWRNAFANPALRRLPIEVMHASAFVKKVANNVPPCTFMFVEQAARLKEWRDPVSVAIKRMQIDHLYMNLETIEDLTPVQFSSVVQHIDPFILGPFYRFIRDYRPIFPLRNDGSNLPDDVRDFMFLYTSDSIREMNEMLPPIRTAEILLHGTDAEEEIDKLLRHLNRVLSNDTLREVFLKRISMIVGAS | not soluble
10 | MGSDKIHHHHHHMILEALQYAATRAVTPKEFRPHVRYSVNLWARANRCAKAWAEHENNSRQFVLQSAKKLKQRRTAVVLGSGLLRDVPHDALVAMFDTVVMVDLVHLASVQAKLRLNAKKNVRIANRDLSGFDDLLAGRPAEPLDFLRRVPYLDFVVSANLLSQIGTGAQHRLEREKIANVPGDLLPKLIQTHLDALAGLPCKVCLVTDTAFDVIGKDGSVQQHEDLLHGIEIASPAAAWDWPLAPFGEESRDYRIVHHVIAREMT | not soluble
11 | MRFEYDLLIVAASPLALDIAYRCAPLGRIGLVIPPPDGQWQWQWQRWWLSQFPPRTLDAQHWQHFQAHLSHGQRRYAPAVLELVGVDVITGVGEFVWRPRCHFQVGGDRLYARGYLLLDAPAAMDFQDMDALSRIELACWHYWSGKAPNADAQGLPVVTTEDAWFNDRLHAALKALGLAIPGSGKRKAPDFSPLHLHPLQRDAQGWLRLNRYGRTSHPQIYACGGWQRGYHLPSLTYFEAFAIARQILQRRPIPLDYRSQPWWIALPIPMARVGWNGRQAQQSLREPIQLWEIQQWSPEGQSLGQVVINRQGRLLGATLIGRAAIASSRIFGRCLDENAFAAITYAGWELDCQRQRSPKARRLPKSGSGLDSPLPLEHHHHHH | soluble
12 | MHHHHHHSSGVDLGTENLYFQSMLNTSGSGTILIDLSPDDKEFQSVEEEMQSTVREHRDGGHAGGIFNRYNILKIQKVCNKKLWERYTHRRKEVSEENHNHANERMLFHGSPFVNAIIHKGFDERHAYIGGMFGAGIYFAENSSKSNQYVYGIGGGTGCPVHKDRSCYICHRQLLFCRVTLGKSFLQFSAMKMAHSPPGHHSVTGRPSVNGLALAEYVIYRGEQAYPEYLITYQIMRPEG | soluble
13 | MGSDKIHHHHHHMFVTELRFECFADTSIEAAEKAINNFLEALRANGQVLGREFAVAFNDGEFRVRLLIPERSSLANRYNSPWVKVALNGLTEAKILAPREKFIGQDINSEASNTHQPSWQLLYTSYVHMCSPLRNGDNLLPIPLYQIPATFNGDHKRMIKWQSEWQACDELQMAAATKAEFAALDEISNTDSDLFRRGWDLRGRIEYLTKIPTYYYLYRVGGESLNAELSRPCPKCGSLEWKLAEPLLDMFQFRCEPCRIVSNLSWDHQ | not soluble
14 | MGSDKIHHHHHHETRECIYYNANWELERTNQSGLERCEGEQDKRLHCYASWRNSSGTIELVKKGCWLDDFNCYDRQECVATEENPQVYFCCCEGNFCNERFTHLPEPG | soluble
15 | IADVVPLDQNNRILAYQGLMRIRARHCRLGIIALAEVANRNVEQFTSSDLGFCIGPRLNAAGRLDNMSIGVELLLANEMSKARELALDLDQLNQTRKEIEAGMKLEAIKICQNLTALFKELPYGITLYQPDWHQGVLGIV | not soluble
